Source: the DeepSol protein solubility set

Assay: soluble on expression in E. coli; label from the status in PepcDB or PDB records

Soluble on expression in E. coli, not soluble:
MGSDKIHHHHHHMKTNIVDVFCIIDDFSKLFDETIKKKTLEEADKKCRNRKFKMSDSEVMTILILFHLSRYRDLKAFYLQYITHSCRSEFPHLVSYNRFVELQSRGGGKLIAFLNMCCLGQCTGISFIDSTPLKVCHIKRAHGHRTMRGWAQKGKSTMGWFYGFKLHIVINDRGEIINYQITPGNCDDREPLKDGTFTKNLFGKLIADRGYISQNLFDRLFVDDIHMITKIKKNMKNSLMHLYDKVLLRKRALIETVNDILKNLCRIEHTRHRSVNNFVTNLISGIIAYNILPKKPELNIEIIRNPNFPISA
MGSDKIHHHHHHMKTNLLNYDLQGLTRHFADMGEKPFRAKQVMRWMHQSGAQNFNEMTDLAKSLRHKLNEQAGIEIPKLMMSQKSSDGTRKWLLDVGTGNGVETVFIPESDRGTLCISSQVGCALECTFCSTGRQGFNRNLTAAEIIGQLWWANKAMGVTPKNERVISNVVMMGMGEPMANFDNVVTALSIMLDDHGYGLSRRRVTVSTSGMVPQMDRLRDVMPVALAVSLHASNDEVRNQIVPLNKKYPLKELMAACQRYLVKAPRDFITFEYVMLDGINDKAQHARELIELVTDVPCKFNLIPFNPFPNSGYERSSNENIRVFRDILQQAGFVVTVRKTRGDDIDAACGQLAGQVQDKTRRQQKWQQILIGQQG
MGSDKIHHHHHHMKTQFPSVWQDKLSQKHFSAFTTIQEAAFDPIKNGKSLLGISPTGSGKTLAYLWPSLLTLTPKKAQQLLILAPNTELAGQIFEVAKEWAQPLNLTAQLFLSGSSQKRQIERLKKGPEIIIGTPGRVFDLVKLKKIKMMNVNTIVLDEFDDLLGKSQIHFVKNIVKRVPRDHQMIYMSATNSIDRTFLADDTLEIDLSKQTVDTISHYYITVAKRERGELLRKFSNIPNFRGLVFFNRLSDLGANEERLQFSGASAVSLASDVNIKFRKVILEKFKNHELSLLLATDLVARGIDIELLETVINFDLPRDKDAYNHRAGRTGRMGKNGIVVTFISHPEELKKLKKFAHVSEVYLKNQILHKK
MGSDKIHHHHHHMKTQVLYGKSEIEINVPDDSTIIEPQNIDAIQDYESTIKNVLRNPTNSKPLKEMVNSNDIVSIVISDITRPTPNHILVPLLIEELNHVPRENFVIINGTGTHRDQTRDELIQMLGEDIVNSVKIVHNHCSEKESLAKVGHSQYGCDVYLNKAYVESDFKIVTGFIEPHFFAGFSGGPKGIMPGIAGLETIQTFHNAKMIGDPRSTWGNLEDNPVQDMAREVNRMCKPDFLLNVALNKSKEITAAFAGEIFDTHKEGCAYVKDHAMFKCDQRFDIVIASNSGYPLDQNLYQTVKGMSAASKVVKKDGHIIMVSECADGFPDHGKFAEIFKMADTPQGILELIHNPNFKEVDQWQVQKQASIQTFANVHVYSELTDQQLKDSMLIPTSNIEHTIQELEHRYGRKLTIGVMPQGPLTIPYVEDKE
MGSDKIHHHHHHMKVIKFGGSSLASSQQLQKVLAIVEADQKRKYVIVSAPGKRFDGDTKVTDLLIQYARQTIHHQDTQAVTAAIIDRYAEIGHGFNVPEAQLTPIFETIRNLPKQSYADNTYLMAAFKAHGERLNAQLVAAVFQQSGLNARYLDPKDAGMVVTDVPDDAQIIKSSYDQLAKWANSEQILVIPGFFAYNRNGQICTFSRGGSDITGAIIARGVHAERYENFTDVDAIYAVNPSLVAKPAAISEMTFTEMRELSYAGFSVFHDEALIPAIEDNITVNVKNTNHPEAPGTLIQSTREPNPHYPVTGIASSSSFCSLYLRKYLLNKEVGLGRKILTILENHHISYEHMPSGIDDLTIIFDEHQLTPELEKTLVAEISTAINPDEIYFTHDYSILMLVGENMRNRVGIMSRAATALANDNIKLIMVNQGASEISIMFGVHDNDADQAVIALYKEFFD
MGSDKIHHHHHHMKVLHIFPSAFLGGSELCAIESIESLQKTGVENHVILPAEGAVINRLENLSVSYKIIQHNWWMSSKPWKTYLKVFMLKGFYSSAASIREYIKNNGIDVVITHSIVIPSGALGARLTNTPHVWYLHEYGDLDHQLKFEYGKSFSLNLINKLSKKIIVNSDALKKHFSKKLPAAKINRLYYSVNYPEFTPLTEKPSGELLLCMVGRIAKGKNQLVALKALALLKQEQIFPQLVFVGGADPDYLKLLEAYIKTHELEKQIAFAGQTDRPWDFVMRSQAVVVGSAMEAFGRVTVEAMKAGRIPIVSDTGAGPELITHNENGFLFDPEKEKQLAEIIKQIWLGTDFTEMTVQAKQYALAHFNSKLHGHELLKILTGLV
